Test results published in article doi:10.1101/2025.06.18.660434.

Molecular target: GST-fusion RACK1 (UniProt P63244)
Test: pull-down

Substance “His-tagged PKAcα (from UniProt P17612 1-351) (enzyme)” has a Kd of 32 nM.
